T1: FcγRIIb (human, UniProt P31994 43-217)
T1 construct: extracellular domain; also called FcgRIIb; 2b
T1 sequence (looked up): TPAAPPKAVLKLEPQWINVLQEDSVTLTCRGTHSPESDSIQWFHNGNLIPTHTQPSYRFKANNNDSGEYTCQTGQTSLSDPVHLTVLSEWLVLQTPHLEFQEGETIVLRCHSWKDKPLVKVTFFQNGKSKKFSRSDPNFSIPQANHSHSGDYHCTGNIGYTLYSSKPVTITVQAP


How the values were obtained:
[1] = target: T2, FcγRIa (human, UniProt P12314 16-292); assay: SPR, captured antibody; relative to GpH7-A5/GpH7-B3/GpL16-k0
T2 construct: extracellular domain; also called FcgRI; 1a

[2] = target: T1, FcγRIIb; assay: as above

T2 sequence (P12314 16-292): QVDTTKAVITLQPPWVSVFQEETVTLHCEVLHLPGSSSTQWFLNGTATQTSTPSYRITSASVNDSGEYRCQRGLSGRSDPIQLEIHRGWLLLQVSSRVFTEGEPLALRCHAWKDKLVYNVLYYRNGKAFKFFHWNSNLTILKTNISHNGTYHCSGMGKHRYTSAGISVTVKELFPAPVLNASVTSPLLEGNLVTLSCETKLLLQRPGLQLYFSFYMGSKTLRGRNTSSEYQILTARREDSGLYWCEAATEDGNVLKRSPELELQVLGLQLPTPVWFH

| He/Con_1a [1] | He/Con_2b [2] | Binder |
| --- | --- | --- |
| 92.2 relative, HeCon Ab = 100 | 63 relative, HeCon Ab = 100 | GpH7-A5/GpH7-B3 variant (L235_02A)/GpL16-k0 (antibody, human IgG1, kappa, IgG1 heterodimer, mutation in the GpH7-B3 chain only; also called He Ab) heavy 1: not shown heavy 2: not shown light: DIVMTQSPLSLPVTPGEPASISCQASESLVHSNRNTYLHWYLQKPGQSPQLLIYKVSNRFSGVPDRFSGSGSGTDFTLKISRVEAEDVGVYYCSQNTHVPPTFGQGTKVEIERTVAAPSVFIFPPSDEQLKSGTASVVCLLNNFYPREAKVQWKVDNALQSGNSQESVTEQDSKDSTYSLSSTLTLSKADYEKHKVYACEVTHQGLSSPVTKSFNRGEC |
| 87.2 relative, HeCon Ab = 100 | 35.4 relative, HeCon Ab = 100 | GpH7-A5/GpH7-B3 variant (L235_01G)/GpL16-k0 (antibody, human IgG1, kappa, IgG1 heterodimer, mutation in the GpH7-B3 chain only; also called He Ab) heavy 1: not shown heavy 2: not shown light: DIVMTQSPLSLPVTPGEPASISCQASESLVHSNRNTYLHWYLQKPGQSPQLLIYKVSNRFSGVPDRFSGSGSGTDFTLKISRVEAEDVGVYYCSQNTHVPPTFGQGTKVEIERTVAAPSVFIFPPSDEQLKSGTASVVCLLNNFYPREAKVQWKVDNALQSGNSQESVTEQDSKDSTYSLSSTLTLSKADYEKHKVYACEVTHQGLSSPVTKSFNRGEC |
| 94.7 relative, HeCon Ab = 100 | 66.4 relative, HeCon Ab = 100 | GpH7-A5/GpH7-B3 variant (L235_03V)/GpL16-k0 (antibody, human IgG1, kappa, IgG1 heterodimer, mutation in the GpH7-B3 chain only; also called He Ab) heavy 1: not shown heavy 2: not shown light: DIVMTQSPLSLPVTPGEPASISCQASESLVHSNRNTYLHWYLQKPGQSPQLLIYKVSNRFSGVPDRFSGSGSGTDFTLKISRVEAEDVGVYYCSQNTHVPPTFGQGTKVEIERTVAAPSVFIFPPSDEQLKSGTASVVCLLNNFYPREAKVQWKVDNALQSGNSQESVTEQDSKDSTYSLSSTLTLSKADYEKHKVYACEVTHQGLSSPVTKSFNRGEC |

Second part, the binder before the results:

| Binder | He/Con_1a [1] | He/Con_2b [2] |
| --- | --- | --- |
| GpH7-A5/GpH7-B3 variant (L234_06M)/GpL16-k0 (antibody, human IgG1, kappa, IgG1 heterodimer, mutation in the GpH7-B3 chain only; also called He Ab) heavy 1: not shown heavy 2: not shown light: DIVMTQSPLSLPVTPGEPASISCQASESLVHSNRNTYLHWYLQKPGQSPQLLIYKVSNRFSGVPDRFSGSGSGTDFTLKISRVEAEDVGVYYCSQNTHVPPTFGQGTKVEIERTVAAPSVFIFPPSDEQLKSGTASVVCLLNNFYPREAKVQWKVDNALQSGNSQESVTEQDSKDSTYSLSSTLTLSKADYEKHKVYACEVTHQGLSSPVTKSFNRGEC | 104 relative, HeCon Ab = 100 | 78.5 relative, HeCon Ab = 100 |
| GpH7-A5/GpH7-B3 variant (L234_12R)/GpL16-k0 (antibody, human IgG1, kappa, IgG1 heterodimer, mutation in the GpH7-B3 chain only; also called He Ab) heavy 1: not shown heavy 2: not shown light: DIVMTQSPLSLPVTPGEPASISCQASESLVHSNRNTYLHWYLQKPGQSPQLLIYKVSNRFSGVPDRFSGSGSGTDFTLKISRVEAEDVGVYYCSQNTHVPPTFGQGTKVEIERTVAAPSVFIFPPSDEQLKSGTASVVCLLNNFYPREAKVQWKVDNALQSGNSQESVTEQDSKDSTYSLSSTLTLSKADYEKHKVYACEVTHQGLSSPVTKSFNRGEC | 91.8 relative, HeCon Ab = 100 | 18.9 relative, HeCon Ab = 100 |
| GpH7-A5/GpH7-B3 variant (L234_19Q)/GpL16-k0 (antibody, human IgG1, kappa, IgG1 heterodimer, mutation in the GpH7-B3 chain only; also called He Ab) heavy 1: not shown heavy 2: not shown light: DIVMTQSPLSLPVTPGEPASISCQASESLVHSNRNTYLHWYLQKPGQSPQLLIYKVSNRFSGVPDRFSGSGSGTDFTLKISRVEAEDVGVYYCSQNTHVPPTFGQGTKVEIERTVAAPSVFIFPPSDEQLKSGTASVVCLLNNFYPREAKVQWKVDNALQSGNSQESVTEQDSKDSTYSLSSTLTLSKADYEKHKVYACEVTHQGLSSPVTKSFNRGEC | 95.7 relative, HeCon Ab = 100 | 60.3 relative, HeCon Ab = 100 |
| GpH7-A5/GpH7-B3 variant (L234_14T)/GpL16-k0 (antibody, human IgG1, kappa, IgG1 heterodimer, mutation in the GpH7-B3 chain only; also called He Ab) heavy 1: not shown heavy 2: not shown light: DIVMTQSPLSLPVTPGEPASISCQASESLVHSNRNTYLHWYLQKPGQSPQLLIYKVSNRFSGVPDRFSGSGSGTDFTLKISRVEAEDVGVYYCSQNTHVPPTFGQGTKVEIERTVAAPSVFIFPPSDEQLKSGTASVVCLLNNFYPREAKVQWKVDNALQSGNSQESVTEQDSKDSTYSLSSTLTLSKADYEKHKVYACEVTHQGLSSPVTKSFNRGEC | 98.6 relative, HeCon Ab = 100 | 62.5 relative, HeCon Ab = 100 |
| GpH7-A5/GpH7-B3 variant (L234_15Y)/GpL16-k0 (antibody, human IgG1, kappa, IgG1 heterodimer, L234Y in the GpH7-B3 chain only; also called GpH7-A5/GpH7-B3-01-15Y/GpL16-k0; He Ab) heavy 1: not shown heavy 2: not shown light: DIVMTQSPLSLPVTPGEPASISCQASESLVHSNRNTYLHWYLQKPGQSPQLLIYKVSNRFSGVPDRFSGSGSGTDFTLKISRVEAEDVGVYYCSQNTHVPPTFGQGTKVEIERTVAAPSVFIFPPSDEQLKSGTASVVCLLNNFYPREAKVQWKVDNALQSGNSQESVTEQDSKDSTYSLSSTLTLSKADYEKHKVYACEVTHQGLSSPVTKSFNRGEC | 100 relative, HeCon Ab = 100 | 96.3 relative, HeCon Ab = 100 |
| GpH7-A5/GpH7-B3 variant (L234_11K)/GpL16-k0 (antibody, human IgG1, kappa, IgG1 heterodimer, mutation in the GpH7-B3 chain only; also called He Ab) heavy 1: not shown heavy 2: not shown light: DIVMTQSPLSLPVTPGEPASISCQASESLVHSNRNTYLHWYLQKPGQSPQLLIYKVSNRFSGVPDRFSGSGSGTDFTLKISRVEAEDVGVYYCSQNTHVPPTFGQGTKVEIERTVAAPSVFIFPPSDEQLKSGTASVVCLLNNFYPREAKVQWKVDNALQSGNSQESVTEQDSKDSTYSLSSTLTLSKADYEKHKVYACEVTHQGLSSPVTKSFNRGEC | 91.8 relative, HeCon Ab = 100 | 16.2 relative, HeCon Ab = 100 |
| GpH7-A5/GpH7-B3 variant (L234_02A)/GpL16-k0 (antibody, human IgG1, kappa, IgG1 heterodimer, mutation in the GpH7-B3 chain only; also called He Ab) heavy 1: not shown heavy 2: not shown light: DIVMTQSPLSLPVTPGEPASISCQASESLVHSNRNTYLHWYLQKPGQSPQLLIYKVSNRFSGVPDRFSGSGSGTDFTLKISRVEAEDVGVYYCSQNTHVPPTFGQGTKVEIERTVAAPSVFIFPPSDEQLKSGTASVVCLLNNFYPREAKVQWKVDNALQSGNSQESVTEQDSKDSTYSLSSTLTLSKADYEKHKVYACEVTHQGLSSPVTKSFNRGEC | 97.5 relative, HeCon Ab = 100 | 64.9 relative, HeCon Ab = 100 |
